A word on the Kd: it is the constant that tells how readily two partners part at equilibrium.

The values below come from patent US20250152704A1 (PARAGON THERAPEUTICS, published 2025).

One test has as its target FcRn-GFP. Put plainly: cell-based or functional assay.
Test [1] deals with T1, Recombinant in-house Human FcRn protein (human, UniProt P55899 24-297; P61769 21-119, limits assumed).
T1 construct: also called huFCRN; HuFcRn
As to the kind of experiment: SPR (Biacore 8K), Fc fusion captured by anti-human Fc on CM5, huFcRn as analyte, 25 C, pH 6.0, 1:1 fit. As for the experimental part: (§1) Following a stabilization period in running buffer, the Fc fusion molecules at 20 nM were captured onto flow cell 2 (active) for 60 sec at a flow rate of 30 uL/min. […] Samples were injected in a multi-cycle manner over freshly captured Fc fusion molecule, by regenerating the capture surfaces with injection of 10 mM glycine pH 1.5 for 30 sec at a flow rate of 30 μL/min. The data was processed and analyzed with Biacore Insight Evaluation Software Version 2.0.15.12933 (GE Healthcare) as follows. […] The responses from the two buffer blank injections were then subtracted from the reference subtracted data (2-1) to yield double-referenced data, which were fit to a 1:1 binding model to determine the apparent association (ka) and dissociation rate constants (kd). Their ratio provided the apparent equilibrium dissociation constant or affinity constant (KD=kd/ka).
Background: SPR reads the build-up and loss of mass on a sensor chip optically.

The target in test [2] is T2, human serum albumin (human, UniProt P02768 25-609).
T2 construct: also called HSA
T2 sequence (P02768 25-609 limits assumed): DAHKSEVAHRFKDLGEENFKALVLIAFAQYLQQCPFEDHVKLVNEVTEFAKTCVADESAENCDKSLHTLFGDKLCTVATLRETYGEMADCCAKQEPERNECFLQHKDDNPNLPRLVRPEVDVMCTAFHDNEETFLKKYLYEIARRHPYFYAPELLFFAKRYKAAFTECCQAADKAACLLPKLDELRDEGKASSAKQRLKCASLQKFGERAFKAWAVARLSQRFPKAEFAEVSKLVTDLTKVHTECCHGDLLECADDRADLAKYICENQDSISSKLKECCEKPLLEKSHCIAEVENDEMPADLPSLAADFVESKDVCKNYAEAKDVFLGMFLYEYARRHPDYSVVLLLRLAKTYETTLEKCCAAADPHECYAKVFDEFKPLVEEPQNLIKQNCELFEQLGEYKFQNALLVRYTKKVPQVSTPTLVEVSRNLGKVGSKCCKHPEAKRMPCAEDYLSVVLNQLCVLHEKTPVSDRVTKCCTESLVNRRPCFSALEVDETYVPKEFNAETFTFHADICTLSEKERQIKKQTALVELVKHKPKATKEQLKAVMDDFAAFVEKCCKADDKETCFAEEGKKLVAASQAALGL
Put plainly: SPR (Biacore 8K), Fc fusion captured by anti-human Fc on CM5, HSA as analyte, 25 C, pH 6.0, 1:1 fit. How it is done:
as §1

Test [3] deals with T1, Recombinant in-house Human FcRn protein. As to the kind of experiment: SPR (Biacore 8K), Fc fusion captured by anti-human Fc on CM5, huFcRn as analyte, 25 C, pH 7.4, 1:1 fit. As for the experimental part:
as §1

Test [4] addresses T2, human serum albumin. As to the kind of experiment: SPR (Biacore 8K), Fc fusion captured by anti-human Fc on CM5, HSA as analyte, 25 C, pH 7.4, 1:1 fit. How it is done: as §1

T1 sequence (P55899 24-297 limits assumed, chain 1 of 2): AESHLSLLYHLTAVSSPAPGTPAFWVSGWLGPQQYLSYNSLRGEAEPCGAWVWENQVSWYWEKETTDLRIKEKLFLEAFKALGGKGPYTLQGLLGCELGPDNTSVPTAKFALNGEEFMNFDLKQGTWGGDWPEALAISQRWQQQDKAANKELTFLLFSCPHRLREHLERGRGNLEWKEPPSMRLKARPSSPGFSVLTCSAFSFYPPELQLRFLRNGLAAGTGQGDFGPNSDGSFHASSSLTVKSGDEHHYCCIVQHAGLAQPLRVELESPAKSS
T1 sequence (P61769 21-119 limits assumed, chain 2 of 2): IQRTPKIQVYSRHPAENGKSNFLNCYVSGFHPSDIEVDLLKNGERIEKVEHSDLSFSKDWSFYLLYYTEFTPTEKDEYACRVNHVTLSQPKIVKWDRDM

B1: Fc Fusion Molecule 44 (Fc fusion)
chain 1: DKTHTCPPCPAPELLGGPSVFLFPPKPKDTLYITREPEVTCVVVDVSHEDPEVKFNWYVDGVEVHNAKTKPREEQYNSTYRVVSVLTVLHQDWLNGKEYKCKVSNKALPAPIEKTISKAKGQPREPQVCTLPPSRDELTKNQVSLSCAVKGFYPSDIAVEWESNGQPENNYKTTPPVLDSDGSFFLVSKLTVDKSRWQQGNVFSCSVMHEALKYHYTQKSLSLSPGGGGGSGGGGSGGGGSGGGGSGGGGSGGGGSEVQLLESGGGLVQPGGSLRLSCAASGFTFRSAGMSWVRQAPGKGPEWVSSISGSGSDTLYADSVKGRFTISRDNSKNTLYLQMNSLRPEDTAVYYCTIGGSLSRSSQGTLVTVSS
chain 2: DKTHTCPPCPAPELLGGPSVFLFPPKPKDTLYITREPEVTCVVVDVSHEDPEVKFNWYVDGVEVHNAKTKPREEQYNSTYRVVSVLTVLHQDWLNGKEYKCKVSNKALPAPIEKTISKAKGQPREPQVYTLPPCRDELTKNQVSLWCLVKGFYPSDIAVEWESNGQPENNYKTTPPVLDSDGSFFLYSKLTVDKSRWQQGNVFSCSVMHEALKYHYTQKSLSLSPG
On to B1, for which, in the test with FcRn-GFP, the “Average (n = 3) Residual FcRn” value was 21.

B2: Fc Fusion Molecule 11 (Fc fusion)
chain 1: EVQLLESGGGLVQPGGSLRLSCAASGFTFRSFGMSWVRQAPGKGPEWVSSISGSGSDTLYADSVKGRFTISRDNSKNTLYLQMNSLRPEDTAVYYCTIGGSLSRSSQGTLVTVSSGGGGSGGGGSGGGGSDKTHTCPPCPAPELLGGPSVFLFPPKPKDTLYITREPEVTCVVVDVSHEDPEVKFNWYVDGVEVHNAKTKPREEQYNSTYRVVSVLTVLHQDWLNGKEYKCKVSNKALPAPIEKTISKAKGQPREPQVCTLPPSRDELTKNQVSLSCAVKGFYPSDIAVEWESNGQPENNYKTTPPVLDSDGSFFLVSKLTVDKSRWQQGNVFSCSVMHEALKFHYTQKSLSLSPG
chain 2: DKTHTCPPCPAPELLGGPSVFLFPPKPKDTLYITREPEVTCVVVDVSHEDPEVKFNWYVDGVEVHNAKTKPREEQYNSTYRVVSVLTVLHQDWLNGKEYKCKVSNKALPAPIEKTISKAKGQPREPQVYTLPPCRDELTKNQVSLWCLVKGFYPSDIAVEWESNGQPENNYKTTPPVLDSDGSFFLYSKLTVDKSRWQQGNVFSCSVMHEALKFHYTQKSLSLSPG
notes: also called ABD1-(G4S)3-Efgart(KIH); ABD1-(G4S)3-Efgart(H)/Efgart(K)
In the case of B2, the Kd turned out to be 6.69 nM in test [1], 7.26 nM with human serum albumin [2], 371 nM in test [3] and 12 nM with human serum albumin [4].

B3: Fc Fusion Molecule 46 (Fc fusion)
chain 1: DKTHTCPPCPAPELLGGPSVFLFPPKPKDTLYITREPEVTCVVVDVSHEDPEVKFNWYVDGVEVHNAKTKPREEQYNSTYRVVSVLTVLHQDWLNGKEYKCKVSNKALPAPIEKTISKAKGQPREPQVCTLPPSRDELTKNQVSLSCAVKGFYPSDIAVEWESNGQPENNYKTTPPVLDSDGSFFLVSKLTVDKSRWQQGNVFSCSVMHEALKYHYTQKSLSLSPGGGGGSGGGGSGGGGSGGGGSGGGGSGGGGSGGGGSGGGGSEVQLLESGGGLVQPGGSLRLSCAASGFTFRSAGMSWVRQAPGKGPEWVSSISGSGSDTLYADSVKGRFTISRDNSKNTLYLQMNSLRPEDTAVYYCTIGGSLSRSSQGTLVTVSS
chain 2: DKTHTCPPCPAPELLGGPSVFLFPPKPKDTLYITREPEVTCVVVDVSHEDPEVKFNWYVDGVEVHNAKTKPREEQYNSTYRVVSVLTVLHQDWLNGKEYKCKVSNKALPAPIEKTISKAKGQPREPQVYTLPPCRDELTKNQVSLWCLVKGFYPSDIAVEWESNGQPENNYKTTPPVLDSDGSFFLYSKLTVDKSRWQQGNVFSCSVMHEALKYHYTQKSLSLSPG
As for B3, the “Average (n = 3) Residual FcRn” value with FcRn-GFP amounted to 44.

B4: Fc Fusion Molecule 45 (Fc fusion)
chain 1: DKTHTCPPCPAPELLGGPSVFLFPPKPKDTLYITREPEVTCVVVDVSHEDPEVKFNWYVDGVEVHNAKTKPREEQYNSTYRVVSVLTVLHQDWLNGKEYKCKVSNKALPAPIEKTISKAKGQPREPQVCTLPPSRDELTKNQVSLSCAVKGFYPSDIAVEWESNGQPENNYKTTPPVLDSDGSFFLVSKLTVDKSRWQQGNVFSCSVMHEALKYHYTQKSLSLSPGGGGGSGGGGSGGGGSGGGGSGGGGSGGGGSGGGGSEVQLLESGGGLVQPGGSLRLSCAASGFTFRSAGMSWVRQAPGKGPEWVSSISGSGSDTLYADSVKGRFTISRDNSKNTLYLQMNSLRPEDTAVYYCTIGGSLSRSSQGTLVTVSS
chain 2: DKTHTCPPCPAPELLGGPSVFLFPPKPKDTLYITREPEVTCVVVDVSHEDPEVKFNWYVDGVEVHNAKTKPREEQYNSTYRVVSVLTVLHQDWLNGKEYKCKVSNKALPAPIEKTISKAKGQPREPQVYTLPPCRDELTKNQVSLWCLVKGFYPSDIAVEWESNGQPENNYKTTPPVLDSDGSFFLYSKLTVDKSRWQQGNVFSCSVMHEALKYHYTQKSLSLSPG
Regarding B4, the “Average (n = 3) Residual FcRn” value in the test with FcRn-GFP came to 29.

B5: Fc Fusion Molecule 12 (Fc fusion)
chain 1: DKTHTCPPCPAPELLGGPSVFLFPPKPKDTLYITREPEVTCVVVDVSHEDPEVKFNWYVDGVEVHNAKTKPREEQYNSTYRVVSVLTVLHQDWLNGKEYKCKVSNKALPAPIEKTISKAKGQPREPQVCTLPPSRDELTKNQVSLSCAVKGFYPSDIAVEWESNGQPENNYKTTPPVLDSDGSFFLVSKLTVDKSRWQQGNVFSCSVMHEALKFHYTQKSLSLSPGGGGGSGGGGSGGGGSEVQLLESGGGLVQPGGSLRLSCAASGFTFRSFGMSWVRQAPGKGPEWVSSISGSGSDTLYADSVKGRFTISRDNSKNTLYLQMNSLRPEDTAVYYCTIGGSLSRSSQGTLVTVSS
chain 2: DKTHTCPPCPAPELLGGPSVFLFPPKPKDTLYITREPEVTCVVVDVSHEDPEVKFNWYVDGVEVHNAKTKPREEQYNSTYRVVSVLTVLHQDWLNGKEYKCKVSNKALPAPIEKTISKAKGQPREPQVYTLPPCRDELTKNQVSLWCLVKGFYPSDIAVEWESNGQPENNYKTTPPVLDSDGSFFLYSKLTVDKSRWQQGNVFSCSVMHEALKFHYTQKSLSLSPG
notes: also called Efgart(KIH)-(G4S)3-ABD1; Efgart(H)-(G4S)3-ABD1/Efgart(K)
Take B5: the Kd in test [1] is 11.3 nM; with human serum albumin [2], 33.4 nM; in test [3] it was 492 nM; in the test with human serum albumin [4], 54.6 nM.

B6: Fc Fusion Molecule 5 (Fc fusion)
chain: EVQLLESGGGLVQPGGSLRLSCAASGFTFRSFGMSWVRQAPGKGPEWVSSISGSGSDTLYADSVKGRFTISRDNSKNTLYLQMNSLRPEDTAVYYCTIGGSLSRSSQGTLVTVSSGGGGSDKTHTCPPCPAPELLGGPSVFLFPPKPKDTLYITREPEVTCVVVDVSHEDPEVKFNWYVDGVEVHNAKTKPREEQYNSTYRVVSVLTVLHQDWLNGKEYKCKVSNKALPAPIEKTISKAKGQPREPQVYTLPPSRDELTKNQVSLTCLVKGFYPSDIAVEWESNGQPENNYKTTPPVLDSDGSFFLYSKLTVDKSRWQQGNVFSCSVMHEALKFHYTQKSLSLSPG
notes: Made in CHO cells; also called ABD1-G4S-Efgart
Regarding B6, the Kd in test [1] worked out at 8.07 nM; with human serum albumin [2] it was 6.32 nM; in test [3], 375 nM.

B7: Fc Fusion Molecule 6 (Fc fusion)
chain: DKTHTCPPCPAPELLGGPSVFLFPPKPKDTLYITREPEVTCVVVDVSHEDPEVKFNWYVDGVEVHNAKTKPREEQYNSTYRVVSVLTVLHQDWLNGKEYKCKVSNKALPAPIEKTISKAKGQPREPQVYTLPPSRDELTKNQVSLTCLVKGFYPSDIAVEWESNGQPENNYKTTPPVLDSDGSFFLYSKLTVDKSRWQQGNVFSCSVMHEALKFHYTQKSLSLSPGGGGGSEVQLLESGGGLVQPGGSLRLSCAASGFTFRSFGMSWVRQAPGKGPEWVSSISGSGSDTLYADSVKGRFTISRDNSKNTLYLQMNSLRPEDTAVYYCTIGGSLSRSSQGTLVTVSS
notes: Made in CHO cells; also called Efgart-G4S-ABD1
With B7, the Kd is 2.1 nM in test [1], 33.8 nM with human serum albumin [2], 634 nM in test [3] and 45.6 nM in the test with human serum albumin [4].
